# Experimental data taken from patent publication US20200079833A1 (AstraZeneca / MedImmune, published 2020).
# Starred links: 1 amine or outer side, 2 acyl side, 3 side chain; linkers in the order of their positions; H or OH if unused. Non-standard residues stand in square brackets, D forms with d. Groups on a side chain read outwards from the residue. Primed or numbered codes have the meaning given here. No end group written: not given here. *: point of attachment. γGlu = O=C(O)[C@H](CCC(=O)[*:2])N[*:1]; Stearoyl = CCCCCCCCCCCCCCCCCC(=O)*; Palmitoyl = CCCCCCCCCCCCCCCC(=O)*; αMeF = C[C@](N)(Cc1ccccc1)C(=O)O; αMeK = C[C@](N)(CCCCN)C(=O)O; αMeS = C[C@](N)(CO)C(=O)O; PEG2′ = not defined here; Aib = CC(C)(N)C(=O)O
# B1: SEQ ID NO 104 (peptide)
# peptide: H[Aib]EGS[αMeF]TSDV[αMeS]S[αMeF]LEGEAA[αMeK]E[αMeF]IAK([PEG2′-PEG2′-γGlu-Stearoyl])VV[αMeK]GG-NH2
# B2: SEQ ID NO 106 (peptide)
# peptide: H[Aib]EGS[αMeF]TSDV[αMeS]S[αMeF]LEGEAA[αMeK]E[αMeF]K([PEG2′-PEG2′-γGlu-Stearoyl])A[αMeF]VV[αMeK]GG-NH2
# B3: SEQ ID NO 103 (peptide)
# peptide: H[Aib]EGS[αMeF]TSDV[αMeS]S[αMeF]LEGEAA[αMeK]E[αMeF]IA[αMeF]K([PEG2′-PEG2′-γGlu-Stearoyl])V[αMeK]GG-NH2
# B4: SEQ ID NO 109 (peptide)
# peptide: H[Aib]EGS[αMeF]TSDV[αMeS]S[αMeF]LEGEAAK([PEG2′-PEG2′-γGlu-Palmitoyl])E[αMeF]IA[αMeF]VV[αMeK]GG-NH2
# B5: SEQ ID NO 97 (peptide)
# peptide: H[Aib]K([γGlu-Palmitoyl])GS[αMeF]TSDV[αMeS]S[αMeF]LEGEAA[αMeK]E[αMeF]IA[αMeF]VV[αMeK]GG-NH2
# modifications: N-terminus assumed
# SMILES: CCCCCCCCCCCCCCCC(=O)N[C@@H](CCC(=O)NCCCC[C@H](NC(=O)C(C)(C)NC(=O)[C@@H](N)Cc1c[nH]cn1)C(=O)NCC(=O)N[C@@H](CO)C(=O)N[C@@](C)(Cc1ccccc1)C(=O)N[C@H](C(=O)N[C@@H](CO)C(=O)N[C@@H](CC(=O)O)C(=O)N[C@H](C(=O)N[C@@](C)(CO)C(=O)N[C@@H](CO)C(=O)N[C@@](C)(Cc1ccccc1)C(=O)N[C@@H](CC(C)C)C(=O)N[C@@H](CCC(=O)O)C(=O)NCC(=O)N[C@@H](CCC(=O)O)C(=O)N[C@@H](C)C(=O)N[C@@H](C)C(=O)N[C@@](C)(CCCCN)C(=O)N[C@@H](CCC(=O)O)C(=O)N[C@@](C)(Cc1ccccc1)C(=O)N[C@H](C(=O)N[C@@H](C)C(=O)N[C@@](C)(Cc1ccccc1)C(=O)N[C@H](C(=O)N[C@H](C(=O)N[C@@](C)(CCCCN)C(=O)NCC(=O)NCC(N)=O)C(C)C)C(C)C)[C@@H](C)CC)C(C)C)[C@@H](C)O)C(=O)O
# B6: SEQ ID NO 105 (peptide)
# peptide: H[Aib]EGS[αMeF]TSDV[αMeS]S[αMeF]LEGEAA[αMeK]E[αMeF]IK([PEG2′-PEG2′-γGlu-Stearoyl])[αMeF]VV[αMeK]GG-NH2
# B7: SEQ ID NO 98 (peptide)
# peptide: HK([γGlu-Palmitoyl])EGS[αMeF]TSDV[αMeS]S[αMeF]LEGEAA[αMeK]E[αMeF]IA[αMeF]VV[αMeK]GG-NH2
# Biological target: glucagon receptor (GCGR) (human, UniProt P47871 26-477)
# Sequence (P47871 26-477): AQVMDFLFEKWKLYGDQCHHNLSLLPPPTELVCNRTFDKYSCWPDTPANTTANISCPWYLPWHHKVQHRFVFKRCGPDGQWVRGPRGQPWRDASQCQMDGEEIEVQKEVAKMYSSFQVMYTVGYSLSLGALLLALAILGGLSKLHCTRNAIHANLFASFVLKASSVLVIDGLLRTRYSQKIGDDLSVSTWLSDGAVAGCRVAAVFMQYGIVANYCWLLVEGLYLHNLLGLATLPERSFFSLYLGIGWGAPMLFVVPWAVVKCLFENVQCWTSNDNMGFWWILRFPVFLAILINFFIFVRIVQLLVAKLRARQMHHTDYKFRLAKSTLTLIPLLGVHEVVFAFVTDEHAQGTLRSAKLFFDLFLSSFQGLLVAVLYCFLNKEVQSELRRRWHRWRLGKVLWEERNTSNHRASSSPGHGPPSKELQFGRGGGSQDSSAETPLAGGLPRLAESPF
# Test: cell-based or functional assay
Binder,cAMP Primary assay EC50 Gluc-R [nM],cAMP Primary assay EC50 Gluc-R (2nd) [nM]
B1,26,25.6
B2,25,25.3
B3,25,25.2
B4,26,25.6
B5,28,28
B6,25,25
B7,28,28

# Biological target: T1, glucose-dependent insulinotropic peptide (gastric inhibitory polypeptide) receptor (GIPR) (human, UniProt P48546 22-466)
# T1 sequence (looked up): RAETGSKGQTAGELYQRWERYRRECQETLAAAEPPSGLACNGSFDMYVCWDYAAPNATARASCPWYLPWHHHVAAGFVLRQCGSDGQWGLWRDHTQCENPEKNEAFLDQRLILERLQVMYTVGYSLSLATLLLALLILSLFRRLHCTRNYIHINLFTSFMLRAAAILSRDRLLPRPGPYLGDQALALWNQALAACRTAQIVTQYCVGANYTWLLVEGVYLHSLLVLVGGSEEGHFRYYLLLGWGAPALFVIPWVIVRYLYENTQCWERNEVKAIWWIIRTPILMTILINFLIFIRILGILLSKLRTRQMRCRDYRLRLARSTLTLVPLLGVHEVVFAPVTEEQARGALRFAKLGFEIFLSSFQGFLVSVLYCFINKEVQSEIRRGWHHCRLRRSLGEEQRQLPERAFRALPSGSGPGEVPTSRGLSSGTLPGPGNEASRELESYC
# Test: cell-based or functional assay
Binder,cAMP Primary assay EC50 GIP-R [nM],cAMP Primary assay EC50 GIP-R (2nd) [nM]
B1,26,25.6
B2,25,25.3
B3,25,25.2
B4,26,25.6
B5,28,28
B6,25,25
B7,28,28

# Biological target: GLP-1 receptor (GLP-1R) (human, UniProt P43220 24-463)
# Test: cell-based or functional assay
Binder,cAMP Mean pM GLP-1R [pM],cAMP Primary assay EC50 GLP-1R n1 [nM],cAMP Primary assay EC50 GLP-1R n2 [nM]
B1,5,0.0059,0.00511
B2,6140,6.5,5.79
B3,5,0.0047,0.00456
B4,34,0.034,0.0346
B5,27800,28,28
B6,18,0.021,0.0148
B7,27500,28,28
